In the supplement of paper PMC12764529:
± gives the half width of the 95% confidence interval.

Key:
[1] = folding stability dG unfold from chymotrypsin proteolysis; higher = more stable
Procedure, shortened: (§1)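 Mini-proteins designed to be under 80 residues and free of cysteine were carried in a PA-tagged cDNA display construct and digested with trypsin and with chymotrypsin. Each protease was applied at 11 threefold-diluted concentrations, alongside a no-protease condition, before sequencing. K50 came from Bayesian fitting of the sequencing counts, and unfolding free energy was obtained by comparing it with a sequence-predicted unfolded-state K50 and a shared folded-state K50, for each protease separately or for both together. Designs were retained only if their AlphaFold2 dimer inter-PAE exceeded 15.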

[2] = folding stability dG unfold (combined trypsin and chymotrypsin); higher = more stable
Procedure, shortened: as §1

[3] = folding stability dG unfold from trypsin proteolysis; higher = more stable
Procedure, shortened: as §1

Row | Sequence | folding stability dG unfold [1] | folding stability dG unfold [2] | folding stability dG unfold [3]
1 | SAGGSAGGSAGSLPIPISSESVSSLPESPLSVVTVKLPDGKTVVITVDLNSSSSSVTPLPSAGGSAGGSAGG [r17_369_JUSTAS] | 1.12 ± 0.032 kcal/mol | 1.37 ± 0.051 kcal/mol | 1.61 ± 0.051 kcal/mol
2 | SAGGSAGGSAGSLTFQLPNGTEITVTEITLEIKLPNGDVILIKITVDPEPPVTTEVTFVNSAGGSAGGSAGG [r11_804_JUSTAS] | 1.37 ± 0.09 kcal/mol | 1.64 ± 0.13 kcal/mol | 1.8 ± 0.066 kcal/mol
3 | SAGGSAGGSAGSMAVDLKITISEDPSKPTYTGTVHLPDGTVVTVTSTGSPEELRARLEALLSAGGSAGGSAG [r3_143_JUSTAS] | 1.94 ± 0.044 kcal/mol | 1.68 ± 0.088 kcal/mol | 0.0769 ± 0.076 kcal/mol
4 | SAGGSAGGSAGSMTITITETKKLPNGKTVVTTTKVEVRVFPNGGAIERKTLEVVTEELLGSAGGSAGGSAGG [r17_129_JUSTAS] | 1.79 ± 0.053 kcal/mol | 1.58 ± 0.098 kcal/mol | 1.34 ± 0.041 kcal/mol
5 | SAGGSAGGSAGSMTLLATETFPETGKTVKYYKEGDTIYRVDYSDPKNPVVTELSPSDPLKSAGGSAGGSAGG [r17_145_JUSTAS] | 2.29 ± 0.054 kcal/mol | 2.12 ± 0.086 kcal/mol | 1.68 ± 0.09 kcal/mol
6 | SAGGSAGGSAGSMTTTTTIVKLPNGTLVLETPTVTTTTFPETGTTTTTTTVTVTVLPGLSSAGGSAGGSAGG [r11_1008_JUSTAS] | 1.3 ± 0.029 kcal/mol | 1.89 ± 0.065 kcal/mol | 2.47 ± 0.076 kcal/mol
7 | SAGGSAGGSAGSPIDTLVEEKTFTLPNGEKVIEATLKRPPGEPVHVVTIETKDSVIVELESAGGSAGGSAGG [r17_316_JUSTAS] | 0.304 ± 0.086 kcal/mol | 0.462 ± 0.049 kcal/mol | 0.513 ± 0.019 kcal/mol
8 | SAGGSAGGSAGSPKGKPPKPTIEYEPITFEIPNPDGQGFELEISIIRMPGNGQEFIGISFSAGGSAGGSAGG [r11_1024_TrROS] | 1.86 ± 0.069 kcal/mol | 1.58 ± 0.17 kcal/mol | 0.611 ± 0.086 kcal/mol
9 | SAGGSAGGSAGSPLAQAVIDELKAQGYTVEAVTVTQPPGNAPVVVVTVKKPDGTRVVIDLSAGGSAGGSAGG [r11_780_JUSTAS] | 2.182 ± 0.016 kcal/mol | 2.39 ± 0.07 kcal/mol | 2.74 ± 0.12 kcal/mol
10 | SAGGSAGGSAGSPMSAEEVEERLREELRRELGPDYTVTVTVTEVLPEGVYVVSVTVTGPASAGGSAGGSAGG [r11_153_JUSTAS] | 1.96 ± 0.028 kcal/mol | 2.21 ± 0.099 kcal/mol | 2.49 ± 0.14 kcal/mol
11 | SAGGSAGGSAGSPVSNPEGGTITNTETLPDGKTIVNTQTIDPSKPKTTTSTTVLDPNGNAVSAGGSAGGSAG [r3_433_JUSTAS] | 1.55 ± 0.045 kcal/mol | 1.27 ± 0.13 kcal/mol | 0.894 ± 0.053 kcal/mol
12 | SAGGSAGGSAGSSLPVLETREEGDLVYLLFPETNLLLVVRRGPGEVEVPSAVRVPPDVPLSAGGSAGGSAGG [r17_30_JUSTAS] | 1.03 ± 0.047 kcal/mol | 0.958 ± 0.063 kcal/mol | 0.805 ± 0.022 kcal/mol
13 | SAGGSAGGSAGSSMTSTVTEVSTLSNGGTVVTTTTTSYYPSTGTTTTSTTTTTFTDGKAVSAGGSAGGSAGG [r11_337_JUSTAS] | 0.932 ± 0.027 kcal/mol | 1.05 ± 0.03 kcal/mol | 1.08 ± 0.057 kcal/mol
14 | SAGGSAGGSAGSSPSDLKVTLKVTLPDGTVLTVVMPAHATLDDFPADRPVTVTTLETKLESAGGSAGGSAGG [r11_997_JUSTAS] | 0.656 ± 0.043 kcal/mol | 1.29 ± 0.12 kcal/mol | 1.66 ± 0.084 kcal/mol
15 | SAGGSAGGSAGSSTSTSSDGVLTTYFPDGTVTSTETKPDPSTGTVLAVSTTTTPLPPDTLSAGGSAGGSAGG [r11_497_JUSTAS] | 0.572 ± 0.035 kcal/mol | 1.39 ± 0.032 kcal/mol | 2.01 ± 0.044 kcal/mol
16 | SAGGSAGGSAGSSVKTYTGKGKKITITKLDNGTYIVTTPDKTSTYPPSVSEEEVIKKALESAGGSAGGSAGG [r17_272_JUSTAS] | -0.0797 ± 0.44 kcal/mol | 0.282 ± 0.17 kcal/mol | 0.506 ± 0.093 kcal/mol
17 | SAGGSAGGSAGSTALVETREFEDGTVVERVEVTLPNGEVLERTVVLTRDEAGNVVEEEVESAGGSAGGSAGG [r11_709_JUSTAS] | 1.29 ± 0.021 kcal/mol | 0.958 ± 0.053 kcal/mol | 0.224 ± 0.03 kcal/mol
18 | SAGGSAGGSAGSTTTTITDPANGEAYEVTSDPNGGATITNPNSSQVYYKNADTITSVGASSAGGSAGGSAGG [r17_476_JUSTAS] | -0.198 ± 0.49 kcal/mol | -0.0736 ± 0.19 kcal/mol | -0.263 ± 0.087 kcal/mol
19 | SAGGSAGGSAGSVLILVSREDLEALLEAGAEIVEVSDDYVLIRVEVPEVEVLDENGKRLDSAGGSAGGSAGG [r11_828_TrROS_Hall] | 2.43 ± 0.056 kcal/mol | 2.21 ± 0.077 kcal/mol | 1.9 ± 0.042 kcal/mol
20 | SAGGSAGGSAGSVTVSSTTTTLTDSMRVITETFTSPDLVKVTFVPTSNPEDVTVTTLPSASAGGSAGGSAGG [r11_1046_JUSTAS] | 1.04 ± 0.026 kcal/mol | 0.643 ± 0.092 kcal/mol | -0.417 ± 0.093 kcal/mol
21 | SAGGSAGGSAGTETKVLFIDENFESVEEAFQALRDLLPDNYKIEPLGVFPAKNKVVVLVTNPSAGGSAGGSA [r18_429_TrMRF] | 0.189 ± 0.27 kcal/mol | 0.589 ± 0.15 kcal/mol | 0.646 ± 0.056 kcal/mol
22 | SAGGSAGGSAGTIKVNGKTVTITKNKKTGKYTITVTLKNGEKKTFVFPSKEDVEEALKALSAGGSAGGSAGG [r11_238_TrROS_Hall] | 4.14 ± 0.08 kcal/mol | 3.94 ± 0.13 kcal/mol | 3.27 ± 0.11 kcal/mol
23 | SAGGSAGGSAGTITILFKDPEDAIDRIKEFAQKEGYKVKIDEIEYTPNGYVWIDIDIEPPSAGGSAGGSAGG [r11_304_TrROS] | 1.49 ± 0.11 kcal/mol | 1.35 ± 0.099 kcal/mol | 1.06 ± 0.045 kcal/mol
24 | SAGGSAGGSAGTITINGKPITIEKLDNGYYKVKVNGKWYEIKPGEKIELPKGATVSIEKVSAGGSAGGSAGG [r11_147_TrROS_Hall] | 2.6 ± 0.035 kcal/mol | 2.27 ± 0.14 kcal/mol | 1.21 ± 0.069 kcal/mol
25 | SAGGSAGGSAGTKTITLPNGLTLTIKPDEPVTITLVKVDPETNEIVEEKTITVYVKEDDLSAGGSAGGSAGG [r11_497_TrROS_Hall] | 1.19 ± 0.061 kcal/mol | 1.2 ± 0.076 kcal/mol | 1.08 ± 0.021 kcal/mol
26 | SAGGSAGGSAGTLEALKNLKPGETVTLRVELRVERRYLDPNGKEHTEEVSTVTLELTLKPSAGGSAGGSAGG [r11_36_TrROS_Hall] | 3.62 ± 0.054 kcal/mol | 3.49 ± 0.11 kcal/mol | 3.22 ± 0.11 kcal/mol
